From patent US20140127175A1 (ZEALAND PHARMA A S, published 2014)
Values belong to the binder of their own block, whether it stands above or below them. Non-standard residues stand in square brackets, D forms with d.

How the values were obtained:
[1] = target: human glucagon-like peptide 1 receptor (human, UniProt P43220 24-463); assay: cell-based or functional assay
human glucagon receptor = human glucagon receptor (human, UniProt P47871 26-477); assay: cell-based or functional assay

human glucagon-like peptide 1 receptor, sequence (P43220 24-463): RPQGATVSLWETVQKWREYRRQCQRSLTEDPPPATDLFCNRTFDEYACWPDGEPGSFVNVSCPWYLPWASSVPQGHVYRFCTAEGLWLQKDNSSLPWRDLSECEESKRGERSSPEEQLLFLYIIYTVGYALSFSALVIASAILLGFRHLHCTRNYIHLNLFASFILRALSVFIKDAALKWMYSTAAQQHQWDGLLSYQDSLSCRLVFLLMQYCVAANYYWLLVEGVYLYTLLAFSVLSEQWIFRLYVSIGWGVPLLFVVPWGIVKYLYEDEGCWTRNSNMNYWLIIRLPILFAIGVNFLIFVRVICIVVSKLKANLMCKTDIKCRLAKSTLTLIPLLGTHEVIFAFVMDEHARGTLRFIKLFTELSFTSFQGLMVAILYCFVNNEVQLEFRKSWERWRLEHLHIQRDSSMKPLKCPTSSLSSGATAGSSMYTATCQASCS

EC50 of cAMP formation, HEK293 cells expressing human GLP-1R [1]: 200 pM
EC50 of cAMP formation, HEK293 cells expressing human Glucagon-R (human glucagon receptor): 500 pM
Binder: H-HSQGTFTSDYSKYLDRARADDFVAWLKSA-NH2 [ZP2634]

EC50 of cAMP formation, HEK293 cells expressing human GLP-1R [1]: 200 pM
EC50 of cAMP formation, HEK293 cells expressing human Glucagon-R (human glucagon receptor): 200 pM
Binder: H-HSQGTFTSDYSKYLDRARADDFVAWLKEA-NH2 [ZP2635]

EC50 of cAMP formation, HEK293 cells expressing human GLP-1R [1]: 230 pM
EC50 of cAMP formation, HEK293 cells expressing human Glucagon-R (human glucagon receptor): 500 pM
Binder: H-HSQGTFTSDYSKYLDRARADDFVAWLKST-NH2 [ZP2495]

EC50 of cAMP formation, HEK293 cells expressing human GLP-1R [1]: 800 pM
EC50 of cAMP formation, HEK293 cells expressing human Glucagon-R (human glucagon receptor): 70 pM
Binder: H-HSQGTFTSDYSKYLDRARADDFVAWLERA-NH2 [ZP2650]

EC50 of cAMP formation, HEK293 cells expressing human GLP-1R [1]: 100 pM
EC50 of cAMP formation, HEK293 cells expressing human Glucagon-R (human glucagon receptor): 200 pM
Binder: H-HSQGTFTSDYSKYLDRARAEDFVAWLKST-NH2 [ZP2637]

EC50 of cAMP formation, HEK293 cells expressing human GLP-1R [1]: 100 pM
EC50 of cAMP formation, HEK293 cells expressing human Glucagon-R (human glucagon receptor): 300 pM
Binder: H-HSQGTFTSDYSKYLDRARADDFVEWLKST-NH2 [ZP2649]

EC50 of cAMP formation, HEK293 cells expressing human GLP-1R [1]: 800 pM
EC50 of cAMP formation, HEK293 cells expressing human Glucagon-R (human glucagon receptor): 500 pM
B1: ZP2654 (peptide)
peptide: H-H[dS]QGTFTSDYSKYLDRARADDFVAWLKST-NH2
SMILES: CC(C)C[C@H](NC(=O)[C@H](Cc1c[nH]c2ccccc12)NC(=O)[C@H](C)NC(=O)[C@@H](NC(=O)[C@H](Cc1ccccc1)NC(=O)[C@H](CC(=O)O)NC(=O)[C@H](CC(=O)O)NC(=O)[C@H](C)NC(=O)[C@H](CCCNC(=N)N)NC(=O)[C@H](C)NC(=O)[C@H](CCCNC(=N)N)NC(=O)[C@H](CC(=O)O)NC(=O)[C@H](CC(C)C)NC(=O)[C@H](Cc1ccc(O)cc1)NC(=O)[C@H](CCCCN)NC(=O)[C@H](CO)NC(=O)[C@H](Cc1ccc(O)cc1)NC(=O)[C@H](CC(=O)O)NC(=O)[C@H](CO)NC(=O)[C@@H](NC(=O)[C@H](Cc1ccccc1)NC(=O)[C@@H](NC(=O)CNC(=O)[C@H](CCC(N)=O)NC(=O)[C@@H](CO)NC(=O)[C@@H](N)Cc1c[nH]cn1)[C@@H](C)O)[C@@H](C)O)C(C)C)C(=O)N[C@@H](CCCCN)C(=O)N[C@@H](CO)C(=O)N[C@H](C(N)=O)[C@@H](C)O

EC50 of cAMP formation, HEK293 cells expressing human GLP-1R [1]: 100 pM
EC50 of cAMP formation, HEK293 cells expressing human Glucagon-R (human glucagon receptor): 200 pM
Binder: H-HSQGTFTSDYSKYLDRARAHDFVAWLKST-NH2 [ZP2648]
